Measurements taken from publication PMC10960667 (Molecular cell, 2024).

Target: T1, recombinant full-length IκBζ wild type with 8×His-MBP tag (human, UniProt Q9BYH8-1 1-718)
T1 sequence (looked up): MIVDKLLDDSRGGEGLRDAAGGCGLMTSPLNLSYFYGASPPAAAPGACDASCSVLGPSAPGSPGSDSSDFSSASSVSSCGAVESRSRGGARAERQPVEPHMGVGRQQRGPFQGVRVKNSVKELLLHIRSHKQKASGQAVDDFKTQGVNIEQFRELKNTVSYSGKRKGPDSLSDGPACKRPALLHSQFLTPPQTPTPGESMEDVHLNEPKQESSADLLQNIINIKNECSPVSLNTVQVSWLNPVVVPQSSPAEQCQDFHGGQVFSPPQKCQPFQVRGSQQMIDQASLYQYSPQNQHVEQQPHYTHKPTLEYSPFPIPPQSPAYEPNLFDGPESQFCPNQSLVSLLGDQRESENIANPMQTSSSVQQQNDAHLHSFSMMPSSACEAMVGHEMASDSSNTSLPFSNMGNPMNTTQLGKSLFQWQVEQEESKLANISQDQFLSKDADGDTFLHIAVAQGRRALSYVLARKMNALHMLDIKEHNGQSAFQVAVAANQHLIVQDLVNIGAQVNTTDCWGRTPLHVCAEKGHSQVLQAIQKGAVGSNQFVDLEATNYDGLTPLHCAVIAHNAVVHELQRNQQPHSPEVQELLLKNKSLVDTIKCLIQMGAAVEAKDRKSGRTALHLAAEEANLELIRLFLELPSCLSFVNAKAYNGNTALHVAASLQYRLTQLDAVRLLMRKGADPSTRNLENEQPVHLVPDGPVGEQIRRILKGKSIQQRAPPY
Assay: pull-down

B1: recombinant full-length OCT6 with N-terminal 6×His-ECFP tag (natural protein, UniProt Q03052 1-451, looked up)
chain: MATTAQYLPRGPGGGAGGTGPLMHPDAAAAAAAAAAAERLHAGAAYREVQKLMHHEWLGAGAGHPVGLAHPQWLPTGGGGGGDWAGGPHLEHGKAGGGGTGRADDGGGGGGFHARLVHQGAAHAGAAWAQGSTAHHLGPAMSPSPGASGGHQPQPLGLYAQAAYPGGGGGGLAGMLAAGGGGAGPGLHHALHEDGHEAQLEPSPPPHLGAHGHAHGHAHAGGLHAAAAHLHPGAGGGGSSVGEHSDEDAPSSDDLEQFAKQFKQRRIKLGFTQADVGLALGTLYGNVFSQTTICRFEALQLSFKNMCKLKPLLNKWLEETDSSSGSPTNLDKIAAQGRKRKKRTSIEVGVKGALESHFLKCPKPSAHEITGLADSLQLEKEVVRVWFCNRRQKEKRMTPAAGAGHPPMDDVYAPGELGPGGGGASPPSAPPPPPPAALHHHHHHTLPGSVQ
- binding result: binds
